In the supplement of paper PMC7125110:
± gives the standard error. Fewer inactive variants are shown than the library holds.

B1: glmS ribozyme (parent)
chain: AUAAAAGCGCCAGAACUACAGAAAUGUAGUUGACGAGGAGGAGGUUUAUCGAAUUUUCGGCGGAUGCCUCCAAA

Assays:
Settings in all cases: with glucosamine-6-phosphate
glucosamine-6-phosphate [1] = variants of: B1; assay: self-cleavage kobs at 160 uM GlcN6P; higher = faster cleavage; RNA array
In short: (§1)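 Glucosamine-6-phosphate (40 μM to 10 mM) in HEPES/KCl/Mg(OAc)2 buffer was flowed over sequenced MiSeq chips, and tiles were imaged over ~14 h. Barcoded ribozyme variants there had been transcribed in situ by E. coli RNA polymerase and were tracked through a hybridised Cy3 probe at 37 °C. One- or two-exponential decay fits to per-tile medians, normalised to baseline and to non-cleaving reference variants, gave kobs. kcat and KM came from weighted Michaelis–Menten fits across concentrations.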

glucosamine-6-phosphate [2] = variants of: B1; assay: self-cleavage kobs at 640 uM GlcN6P; higher = faster cleavage; RNA array
In short: as §1

glucosamine-6-phosphate [3] = variants of: B1; assay: self-cleavage kobs at 2500 uM GlcN6P; higher = faster cleavage; RNA array
In short: as §1

glucosamine-6-phosphate [4] = variants of: B1; assay: self-cleavage kobs at 10000 uM GlcN6P; higher = faster cleavage; RNA array
In short: as §1

Variant | self-cleavage kobs at 160 uM GlcN6P (glucosamine-6-phosphate [1]) [s⁻¹] | self-cleavage kobs at 640 uM GlcN6P (glucosamine-6-phosphate [2]) [s⁻¹] | self-cleavage kobs at 2500 uM GlcN6P (glucosamine-6-phosphate [3]) [s⁻¹] | self-cleavage kobs at 10000 uM GlcN6P (glucosamine-6-phosphate [4]) [s⁻¹]
A33U G37U G43A | < 1e-05 |  |  | 
A33G A39C G41A C50A |  | < 1e-05 |  | 
U45G C50G C71U | < 1e-05 |  |  | 
A12U A14C G40C A42U U45G | < 1e-05 | < 1e-05 |  | 
C11U C58A A64C |  | < 1e-05 |  | 
G7A G37A A39G G40U U49A G59A | < 1e-05 |  | < 1e-05 | 
G7U A14U U55C C70U | < 1e-05 |  |  | 
G41U A52C U65A |  | < 1e-05 |  | 
C8G U31C G38A |  | < 1e-05 |  | < 1e-05
G7C C10G U45C | < 1e-05 |  |  | 
G26U C50G C68U | 0.000155 ± 5.5e-05 |  |  | 
C50G A64U C70U |  | 0.000173 ± 5.1e-05 | 0.000192 ± 4.3e-05 | 
C8U G44A U45C |  | < 1e-05 | < 1e-05 | 
A15G U30C C34G A36C G41U U49A C70A |  | < 1e-05 | < 1e-05 | 
A14G U55A A64C C70U | 3.8e-05 ± 1.7e-05 | 0.000343 ± 8.3e-05 | 0.000958 ± 0.00021 | 0.000686 ± 0.00019
A36G A42G U56G |  | < 1e-05 |  | 
A36C G59A C71G | < 1e-05 |  |  | < 1e-05
U30C G35C | < 1e-05 | < 1e-05 | < 1e-05 | < 1e-05
G21U U45C C68U |  | 0.000572 ± 0.0001 | 0.000312 ± 8e-05 | 0.00114 ± 0.00043
G9A A48U | < 1e-05 | < 1e-05 | < 1e-05 | 
A36C G43U G60U |  | < 1e-05 |  | 
C50G A52G C67U | 0.000143 ± 5.1e-05 | 0.000875 ± 0.00027 | 7.71e-05 ± 2.8e-05 | 
U30G U31C A39U |  | 0.000202 ± 6.1e-05 |  | 0.00122 ± 0.00026
G13U C16U G37U U47G U57A C58U G60U |  | < 1e-05 |  | 
A33G A53C A64U |  | < 1e-05 |  | 
G41A G59U C71U | < 1e-05 | < 1e-05 | < 1e-05 | 
C11A A48C | < 1e-05 | < 1e-05 | < 1e-05 | 
G35C G43U C61U |  | < 1e-05 | < 1e-05 | 
A12U C50G C70G | 0.000311 ± 7.3e-05 | 0.000429 ± 8.2e-05 | 0.000205 ± 7.3e-05 | 0.000273 ± 6e-05
